Measured values reported in patent publication US20140271653A1 (Regeneron, published 2014).

How the values were obtained:
[1] = biological target: RSV-F of RSV subtype A clinical isolate A1998/3-2 (respiratory syncytial virus subtype A, …); assay: cell-based or functional assay
[2] = biological target: RSV-F of RSV subtype A clinical isolate A2000/3-4 (respiratory syncytial virus subtype A, …); assay: cell-based or functional assay
[3] = biological target: RSV-F of RSV subtype A clinical isolate A1997/12-35 (respiratory syncytial virus subtype A, …); assay: cell-based or functional assay
[4] = biological target: RSV-F of RSV subtype A clinical isolate A1998/12-21 (respiratory syncytial virus subtype A, …); assay: cell-based or functional assay
[5] = biological target: RSV-F of RSV subtype A clinical isolate A2001/2-20 (respiratory syncytial virus subtype A, …); assay: cell-based or functional assay
[6] = biological target: RSV-F of RSV subtype A clinical isolate A2001/3-12 (respiratory syncytial virus subtype A, …); assay: cell-based or functional assay
[7] = biological target: T1, RSV-F of RSV subtype A strain A2 (1540) (respiratory syncytial virus subtype A, …, UniProt P03420 26-574); assay: cell-based or functional assay
[8] = biological target: T1, RSV-F of RSV subtype A strain A2 (1540); assay: cell-based or functional assay; remark: listed apart in the source
[9] = biological target: T2, RSV-F of RSV subtype A strain Long (respiratory syncytial virus subtype A, …, UniProt P12568 26-574); assay: cell-based or functional assay
[10] = biological target: T3, RSV-F.mmh (Respiratory Syncytial Virus); assay: SPR (Biacore), mAb captured via Fc, soluble RSV-F.mmh injected, 25 C
T3 construct: also called recombinant RSV-F; soluble monomeric RSV-F

[11] = biological target: RSV-F of RSV subtype B strain 18537 (respiratory syncytial virus subtype B, …, UniProt P13843 26-574); assay: cell-based or functional assay
[12] = biological target: T1, RSV-F of RSV subtype A strain A2 (1540); assay: cell-based or functional assay; remark: listed apart in the source
[13] = biological target: RSV-F of RSV subtype B strain 1400 (respiratory syncytial virus subtype B, …); assay: cell-based or functional assay
[14] = biological target: RSV-F of RSV subtype B strain 1A2 (respiratory syncytial virus subtype B, …); assay: cell-based or functional assay
[15] = biological target: T2, RSV-F of RSV subtype A strain Long; assay: cell-based or functional assay; remark: listed apart in the source
[16] = biological target: T4, RSV-F of RSV subtype B strain 9320 (respiratory syncytial virus subtype B, …); assay: cell-based or functional assay
[17] = biological target: T5, RSV-F of RSV subtype B strain 1580 (respiratory syncytial virus subtype B, …); assay: cell-based or functional assay
[18] = biological target: T4, RSV-F of RSV subtype B strain 9320; assay: cell-based or functional assay; remark: listed apart in the source
[19] = biological target: RSV-F S173T of escape mutant RSV/B S173T (respiratory syncytial virus subtype B, …); assay: cell-based or functional assay
[20] = biological target: RSV-F S173T/T174K of escape mutant RSV/B S173T/T174K (respiratory syncytial virus subtype B, …); assay: cell-based or functional assay
[21] = biological target: RSV-F T174K of escape mutant RSV/B T174K (respiratory syncytial virus subtype B, …); assay: cell-based or functional assay
[22] = biological target: T1, RSV-F of RSV subtype A strain A2 (1540); assay: cell-based or functional assay; remark: listed apart in the source
[23] = biological target: RSV-F S173Y of escape mutant RSV/A S173Y (respiratory syncytial virus subtype A, …, UniProt P03420 26-574); assay: cell-based or functional assay
[24] = biological target: T5, RSV-F of RSV subtype B strain 1580; assay: cell-based or functional assay; remark: listed apart in the source
[25] = biological target: T1, RSV-F of RSV subtype A strain A2 (1540); assay: cell-based or functional assay; remark: listed apart in the source

B1: Control I (palivizumab sequence) (antibody, V domains shown)
VH: QVTLRESGPALVKPTQTLTLTCTFSGFSLSTSGMSVGWIRQPPGKALEWLADIWWDDKKDYNPSLKSRLTISKDTSKNQVVLKVTNMDPADTATYYCARSMITNWYFDVWGAGTTVTVSS
VL: DIQMTQSPSTLSASVGDRVTITCKCQLSVGYMHWYQQKPGKAPKLLIYDTSKLASGVPSRFSGSGSGTEFTLTISSLQPDDFATYYCFQGSGYPFTFGGGTKLEIKR
notes: also called Control 1; SYNAGIS
IC50 (pM), RSV micro-neutralization, clinical isolate [1]: 344 pM | IC50 (pM), RSV micro-neutralization, clinical isolate [2]: 899 pM | IC50 (pM), RSV micro-neutralization, clinical isolate [3]: 478 pM | IC50 (pM), RSV micro-neutralization, clinical isolate [4]: 580 pM | IC50 (pM), RSV micro-neutralization, clinical isolate [5]: 935 pM | IC50 (pM), RSV micro-neutralization, clinical isolate [6]: 1260 pM | IC50 [pM] for RSV A2 Neutralization, Trial 1 [7]: 1820 pM | IC50 [pM] for RSV A2 Neutralization, Trial 2 [7]: 950 pM | IC50 [pM] for RSV A2 Neutralization, Trial 3 [7]: 290 pM | IC50 [pM] for RSV A2 Neutralization, Trial 5 [7]: 160 pM | IC50 [pM] for RSV A2 Neutralization, Trial 6 [7]: 500 pM | IC50 [pM] for RSV A2 Neutralization, Trial 7 [7]: 250 pM | RSV-A2 (1540) Neutral. IC50 [pM] [8]: 360 pM | RSV-Long Neutral. IC50 [pM] [9]: 536 pM | Kd [10]: 38.1 nM | t½ [10]: 4 min | IC50 (pM), RSV micro-neutralization, B/18537 [11]: 1190 pM | IC50 (pM), RSV micro-neutralization, A/A2 [12]: 2080 pM | IC50 (pM), RSV micro-neutralization, B/1400 [13]: 113 pM | IC50 (pM), RSV micro-neutralization, B/1A2 [14]: 223 pM | IC50 (pM), RSV micro-neutralization, A/Long [15]: 752 pM | IC50 (pM), RSV micro-neutralization, B/9320 [16]: 338 pM | RSV - 1580 Neutral. IC50 [pM] [17]: 375 pM | RSV-9320 Neutral. IC50 [pM] [18]: 460 pM | Neutralization IC50, pM (microneutralization, escape mutant) [19]: 1900 pM | Neutralization IC50, pM (microneutralization, escape mutant) [20]: 980 pM | Neutralization IC50, pM (microneutralization, escape mutant) [21]: 640 pM | Neutralization IC50, pM (microneutralization, wt subtype A) [22]: 1140 pM | Neutralization IC50, pM (microneutralization, escape mutant) [23]: 1710 pM | Neutralization IC50, pM (microneutralization, wt subtype B) [24]: 1900 pM | IC50 of blocking viral fusion (antibody added after viral attachment at 4 C, infection read by ELISA) [25]: 1 nM
